Our source for the protein stability index values is the supplement of paper PMC10567573.

To fix the notation:
B1: CCDC6 (parent)
chain: ASVTIQARAEQEEEFISNTLFKKI
B2: ZNF449 (parent)
chain: TLHQRTHTEERPFKCNYCGKSFRQ
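Also: lentivirally expressed fusions sorted by FACS into six bins by GFP to DsRed ratio, PSI derived from sequencing read proportions per bin multiplied by bin number.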

The first data set covers variants of B1. Nature of the data set: protein stability index of a GFP-peptide fusion (GPS, HEK-293T) (PSI 1-6); higher = more stable. The following applies: c terminus: a fixed tail appended.
Consider ASVTIQARAEQEEEFISNTLFKWI [K23W], for which the protein stability index was determined as 2.23.

Turning to ASVTIQARAEQEEEFISNTLFKYI [K23Y], the protein stability index turned out to be 1.98.

Turning to ASVTIQARAEQEEEFISNTLFKKT [I24T], the protein stability index is 4.76.

Take ASVTIQARAEQEEEFISNTLFKKW [I24W]: the protein stability index came to 3.59.

In the case of ASVTIQARAEQEEEFISNTLFKKA [I24A], the protein stability index was 4.14.

Consider ASVTIQARAEQEEEFISNTLFKKH [I24H], for which the protein stability index is 4.37.

With ASVTIQARAEQEEEFISNTLFKKM [I24M], the protein stability index was determined as 3.83.

As to ASVTIQARAEQEEEFISNTLFKKY [I24Y], the protein stability index amounted to 3.56.

Regarding ASVTIQARAEQEEEFISNTLFKKE [I24E], the protein stability index is 4.58.

As for ASVTIQARAEQEEEFISNTLFKKP [I24P], the protein stability index worked out at 4.25.

For the variant ASVTIQARAEQEEEFISNTLFKKN [I24N], the protein stability index was determined as 4.71.

As to ASVTIQARAEQEEEFISNTLFKKF [I24F], the protein stability index came out at 3.66.

Take ASVTIQARAEQEEEFISNTLFKKL [I24L]: the protein stability index amounted to 4.23.

ASVTIQARAEQEEEFISNTLFKKK [I24K]: the protein stability index turned out to be 4.8.

For the variant ASVTIQARAEQEEEFISNTLFKKS [I24S], the protein stability index was determined as 4.17.

With ASVTIQARAEQEEEFISNTLFKKD [I24D], the protein stability index was determined as 4.85.

As for ASVTIQARAEQEEEFISNTLFKKV [I24V], the protein stability index was found to be 3.71.

ASVTIQARAEQEEEFISNTLFKKC [I24C]: the protein stability index worked out at 4.52.

For ASVTIQARAEQEEEFISNTLFKKR [I24R], the protein stability index came to 4.03.

Turning to ASVTIQARAEQEEEFISNTLFKKQ [I24Q], the protein stability index came to 4.36.

In the case of ASVTIQARAEQEEEFISNTLFKKG [I24G], the protein stability index was found to be 4.48.

A further data set covers variants of B2. The description is as above. To be noted: c terminus: a fixed tail appended.
For the variant TLHQRTHTEERPFKCNYCGKSDRQ [F22D], the protein stability index is 3.12.

On to TLHQRTHTEERPFKCNYCGKSRRQ [F22R], for which the protein stability index is 1.48.

Regarding TLHQRTHTEERPFKCNYCGKSSRQ [F22S], the protein stability index was determined as 2.85.

As for TLHQRTHTEERPFKCNYCGKSLRQ [F22L], the protein stability index was found to be 1.82.

In the case of TLHQRTHTEERPFKCNYCGKSMRQ [F22M], the protein stability index was 2.28.

As for TLHQRTHTEERPFKCNYCGKSYRQ [F22Y], the protein stability index was 2.35.

Turning to TLHQRTHTEERPFKCNYCGKSCRQ [F22C], the protein stability index amounted to 3.22.

For TLHQRTMTEERPFKCNYCGKSFRQ [H7M], the protein stability index came to 2.29.

On to TLHQRTDTEERPFKCNYCGKSFRQ [H7D], for which the protein stability index was determined as 2.65.

Take TLHQRTNTEERPFKCNYCGKSFRQ [H7N]: the protein stability index is 2.12.

Turning to TLHQRTCTEERPFKCNYCGKSFRQ [H7C], the protein stability index came to 2.66.

As for TLHQRTKTEERPFKCNYCGKSFRQ [H7K], the protein stability index was determined as 2.27.

In the case of TLHQRTRTEERPFKCNYCGKSFRQ [H7R], the protein stability index was 2.48.

Consider TLHQRTYTEERPFKCNYCGKSFRQ [H7Y], for which the protein stability index was determined as 1.94.

As for TLHQRTHTEERPFKCNYCGKSFWQ [R23W], the protein stability index stood at 2.29.

As to TLHQRTHTEERPFKCNYCGKSFEQ [R23E], the protein stability index is 3.53.

Consider TLHQRTHTEERPFKCNYCGKSFYQ [R23Y], for which the protein stability index came out at 2.72.

As for TLHQRTHTEERPFKCNYCGKSFPQ [R23P], the protein stability index is 2.58.

As for TLHQRTHTEERPFKCNRCGKSFRQ [Y17R], the protein stability index was determined as 2.92.

In the case of TLHQRTHTEERPFKCNFCGKSFRQ [Y17F], the protein stability index stood at 2.22.

Consider TLHQRTHTEERPFKCNVCGKSFRQ [Y17V], for which the protein stability index is 2.32.

For TLHQRTHTEERPFKCNACGKSFRQ [Y17A], the protein stability index turned out to be 1.93.

In the case of TLHQRTHTEERPFKCNDCGKSFRQ [Y17D], the protein stability index turned out to be 2.09.

With TLHQRTHTEERLFKCNYCGKSFRQ [P12L], the protein stability index is 3.05.

Take TLHQRTHTEERWFKCNYCGKSFRQ [P12W]: the protein stability index was found to be 2.89.

Take TLHQRTHTEERDFKCNYCGKSFRQ [P12D]: the protein stability index worked out at 3.12.

For the variant TLHQRTHTEERYFKCNYCGKSFRQ [P12Y], the protein stability index was 2.77.

Turning to TLHQRTHTEERNFKCNYCGKSFRQ [P12N], the protein stability index was 2.41.

For TLHQRTHTEERQFKCNYCGKSFRQ [P12Q], the protein stability index was 2.79.

In the case of TLHQRTHTEERVFKCNYCGKSFRQ [P12V], the protein stability index amounted to 2.57.

Regarding WLHQRTHTEERPFKCNYCGKSFRQ [T1W], the protein stability index worked out at 2.01.

For NLHQRTHTEERPFKCNYCGKSFRQ [T1N], the protein stability index came out at 2.87.

With ALHQRTHTEERPFKCNYCGKSFRQ [T1A], the protein stability index is 2.12.

For VLHQRTHTEERPFKCNYCGKSFRQ [T1V], the protein stability index came to 3.17.

Turning to PLHQRTHTEERPFKCNYCGKSFRQ [T1P], the protein stability index came out at 2.56.

Take RLHQRTHTEERPFKCNYCGKSFRQ [T1R]: the protein stability index is 2.02.

Take TLHQRTHTEERPFKCNYKGKSFRQ [C18K]: the protein stability index was 3.12.

TLHQRTHTEERPFKCNYWGKSFRQ [C18W]: the protein stability index is 2.33.

In the case of TLHQRTHTEERPFKCNYTGKSFRQ [C18T], the protein stability index is 3.4.

As to TLHQRTHTEERPFKCNYFGKSFRQ [C18F], the protein stability index amounted to 2.85.

Take TLHQRTHTEERPFKCNYIGKSFRQ [C18I]: the protein stability index worked out at 2.92.

For the variant TLHQRTHTEEQPFKCNYCGKSFRQ [R11Q], the protein stability index stood at 2.95.

Take TLHQRTHTEEVPFKCNYCGKSFRQ [R11V]: the protein stability index was found to be 2.54.

On to TLHQRTHTEEYPFKCNYCGKSFRQ [R11Y], for which the protein stability index came out at 2.11.

As for TLHQRTHTEEWPFKCNYCGKSFRQ [R11W], the protein stability index was determined as 2.09.

With TLHQRTHTEESPFKCNYCGKSFRQ [R11S], the protein stability index worked out at 2.25.

Consider TLHQRTHTEEAPFKCNYCGKSFRQ [R11A], for which the protein stability index came to 2.39.

For TLHQRTHTEERPFPCNYCGKSFRQ [K14P], the protein stability index was 2.83.

Consider TLHQRTHTEERPFNCNYCGKSFRQ [K14N], for which the protein stability index turned out to be 1.95.

TLHQRTHTEERPFTCNYCGKSFRQ [K14T]: the protein stability index was found to be 1.9.

As for TLHQRTHTEERPFHCNYCGKSFRQ [K14H], the protein stability index was determined as 2.31.

For the variant TLHQRTHTEERPFQCNYCGKSFRQ [K14Q], the protein stability index is 2.22.

With TLHQRTHTEERPFDCNYCGKSFRQ [K14D], the protein stability index was found to be 2.41.

As for TLHQRTHTEERPFMCNYCGKSFRQ [K14M], the protein stability index was 2.2.

Take TLHQRTHTWERPFKCNYCGKSFRQ [E9W]: the protein stability index came out at 1.77.

For the variant TLHQRTHTRERPFKCNYCGKSFRQ [E9R], the protein stability index was 2.26.

For TLHQRTHTVERPFKCNYCGKSFRQ [E9V], the protein stability index is 1.76.

In the case of TLHQRTHTGERPFKCNYCGKSFRQ [E9G], the protein stability index worked out at 2.97.

Take TNHQRTHTEERPFKCNYCGKSFRQ [L2N]: the protein stability index stood at 2.59.

With TRHQRTHTEERPFKCNYCGKSFRQ [L2R], the protein stability index stood at 2.75.

Consider TMHQRTHTEERPFKCNYCGKSFRQ [L2M], for which the protein stability index was 2.58.

For TGHQRTHTEERPFKCNYCGKSFRQ [L2G], the protein stability index was 3.08.

With TEHQRTHTEERPFKCNYCGKSFRQ [L2E], the protein stability index was 3.64.

For the variant TYHQRTHTEERPFKCNYCGKSFRQ [L2Y], the protein stability index was found to be 2.64.

As for TPHQRTHTEERPFKCNYCGKSFRQ [L2P], the protein stability index stood at 2.88.

As for TWHQRTHTEERPFKCNYCGKSFRQ [L2W], the protein stability index stood at 1.83.

For TLHQRTHTERRPFKCNYCGKSFRQ [E10R], the protein stability index was found to be 1.81.

In the case of TLHQRTHTEKRPFKCNYCGKSFRQ [E10K], the protein stability index came out at 2.03.

With TLHQRTHTEWRPFKCNYCGKSFRQ [E10W], the protein stability index is 2.46.

For TLHQRTHTEFRPFKCNYCGKSFRQ [E10F], the protein stability index worked out at 1.48.

In the case of TLHQRTHTEVRPFKCNYCGKSFRQ [E10V], the protein stability index worked out at 3.31.

With TLHQRTHTEYRPFKCNYCGKSFRQ [E10Y], the protein stability index worked out at 2.55.

As for TLHQRTHTEQRPFKCNYCGKSFRQ [E10Q], the protein stability index amounted to 2.56.
